B1: S2X35 recombinant antibody (human IgG constant region) (antibody, V domains shown)
VH: QVQLVQSGAEVKKPGASVKVSCKASGYTFTNYGISWVRQAPGQGLEWMGWISAYKGNTNYAQKLQGRVTMTTDTSTSTAYMELRSLRSDDTAVYYCARPDYQVLGYDFWIGYYGMDVWGQGTTVIVSS
VL: QSVLTQPPSVSGAPGQRVTISCTGSSSNIGAGYDVHWYQQLPGTAPKLLIYGNTNRPSGVPDRFSGSKSGTSASLAITGLQAEDEADYYCQSYDSSLSGSEVVFGGGTKLTVL
B2: 8H12 monoclonal antibody (mouse IgG) (antibody, V domains shown)
VH: EVKLEESGGGLVQPGGSMKLSCAASGFTFSDAWMDWVRQSPEKGLEWVAQIRRKANNHATYYAESVKGRFTISRDDSKSSVYLQMNSLRAEDTGIYYCIRGMTYAMDFWGQGTSVTVSS
VL: DIVMTQFQKFMSTSVGDRVSITCKASQNVRTAVAWYQQKPGQSPKAMIYLASNRHRGVPDRFTGSGCGTDFTLTISNVQCEDLADYFCLQHRNYPLTFGGGTKLEIK
B3: VacW-209 recombinant antibody (human IgG constant region) (antibody, V domains shown)
VH: QVQLVESGGGVVQPGRSLRLSCAASGFTFSSIAMHWVRQAPGKGLEWVAVMSFDGSIKYYGDSVKGRFTISRDNSKSTLYLQMNSLRAEDTAVYYCARGVQGYYDRSGYYNLDYNYGMDVWGQGTTVTVSS
VL: QSVLTQPPSVSGAPGQRVTISCTGSSSNIGAGYDVHWYQQLPGTAPKLLIYGNSNRPSGVPDRFSGSKSGTSASLAITGLQAEDEADYYCQSYDSSLSGWVFGGGTKLTVL
B4: S2E12 recombinant antibody (human IgG constant region) (antibody, V domains shown)
VH: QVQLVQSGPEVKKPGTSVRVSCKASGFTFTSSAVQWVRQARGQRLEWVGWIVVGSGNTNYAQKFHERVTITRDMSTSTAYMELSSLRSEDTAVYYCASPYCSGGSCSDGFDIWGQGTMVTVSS
VL: DIVLTQTPGTLSLSPGERATLSCRASQSVSSSYLAWYQQKPGQAPRLLIYGASSRATGIPDRFSGSGSGTDFTLTISRLEPEDFAVYYCQQYVGLTGWTFGQGTKVEIK
B5: S2X35 Fab (Fab, V domains shown)
VH: B1 VH
VL: B1 VL
B6: VacW-209 Fab (Fab, V domains shown)
VH: B3 VH
VL: B3 VL
B7: S2E12 Fab (Fab, V domains shown)
VH: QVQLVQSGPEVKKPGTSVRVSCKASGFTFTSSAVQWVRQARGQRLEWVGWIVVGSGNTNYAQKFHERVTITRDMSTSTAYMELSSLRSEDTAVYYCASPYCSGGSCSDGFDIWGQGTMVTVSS
VL: B4 VL

These results are taken from paper PMC10833452 (Protein & Cell, 2023).

The first assay deals with T1, SARS-CoV-2 wild-type spike protein ectodomain, prefusion-stabilized trimer (WT-S) (SARS-CoV-2 prototype (MN908947), UniProt P0DTC2, proline substitution at 986 | proline substitution at 987 | GSAS substitution …). The assay can be described thus: SPR. To be noted: both partners purified.
With B1, the binding result is reported as “binds”.
With B2, the binding result was “binds”.
B3: the binding result is listed as “binds”.
For the molecule B4, the binding result is “binds”.

A further assay has as its target T1, SARS-CoV-2 wild-type spike protein …. Briefly: cryo-EM structure. To be noted: both partners purified.
On to B5, for which the binding result is on record as “binds”.
Consider B6, for which the binding result is “binds”.
For the molecule B7, the binding result is given as “binds”.
